Laboratory results as given in patent publication US8598314B2 (priority 2007, dated 2013).

Assays:
NIH/Swiss female mice = test: Transient effect on blood glucose and body weight; assay type: in vivo; conditions: 250 nmol/kg subcutaneous injection; for effect on body weight (in words): FIGS. 14B and 15B; for return of body weight to pre-treatment levels (in words): day 5, FIG. 15B
Method: A subcutaneous injection (200 μL) of vehicle (PBS) or test compound was given to NIH/Swiss female mice immediately following baseline glucose and body weight measurement. Tail blood glucose samples were measured (OneTouch® Ultra®, LifeScan Inc., Milpitas, Calif.) at baseline (time=0) and 2, 4, 8, 24, 48, 72 and 96 hrs. Body weight was measured daily. Significant test sample effects were identified by ANONA (p<0.05) followed by Dunnett's post test (GraphPad PRISM®, version 4.00 for Windows, GraphPad Software, San Diego, Calif.). Points in FIG. 14A, FIG. 14B, FIG. 15A and FIG. 15B represent mean±SD (standard deviation).

[1] = Peptide stability in human kidney brush border membranes; conditions: Table 6
Method: The tubes were incubated in VorTemp 56™ (Eurotech Labs, UK) at 37° C. vortexed at 500 RPM. At time points of 0, 1, 2, 3, 4, and 5 hours, 200 μl STOP solution (50% ACN, 1% formic acid) was added to a given tube, and the samples were allowed to incubate until the end of the experiment. The samples were collected after 5 hours, centrifuged, and 200 μl of the supernatants were transferred into mass spectrometry vials. The intensities of the mother ions in each vial were analyzed with API 150EX™ mass spectrometer (Applied Biosystems, Foster City, Calif.) and quantified using the ANALYST™ program.
The hKBBM assay was also performed in the presence of valinepyrrolidide, a DPP-IV inhibitor.

SMILES: CC[C@H](C)[C@H](NC(=O)[C@H](Cc1ccccc1)NC(=O)[C@H](CC(C)C)NC(=O)[C@H](CCCNC(=N)N)NC(=O)[C@@H](NC(=O)[C@H](C)NC(=O)[C@H](CCC(=O)O)NC(=O)[C@H](CCC(=O)O)NC(=O)[C@H](CCC(=O)O)NC(=O)[C@H](CC(C)C)NC(=O)[C@H](CCC(N)=O)NC(=O)[C@H](CCCCN)NC(=O)[C@H](CO)NC(=O)[C@H](CC(C)C)NC(=O)[C@H](CC(=O)O)NC(=O)[C@H](CO)NC(=O)[C@@H](NC(=O)[C@H](Cc1ccccc1)NC(=O)[C@@H](NC(=O)CNC(=O)[C@H](CCC(=O)O)NC(=O)CNC(=O)[C@@H](N)Cc1c[nH]cn1)[C@@H](C)O)[C@@H](C)O)C(C)C)C(=O)N[C@@H](CCC(=O)O)C(=O)N[C@@H](Cc1c[nH]c2ccccc12)C(=O)N[C@@H](CC(C)C)C(=O)N[C@@H](CCCCN)C(=O)N[C@@H](CCC(N)=O)C(=O)NCC(=O)NCC(=O)N1CCC[C@H]1C(=O)N[C@@H](CO)C(=O)N[C@@H](CCCCN)C(=O)N[C@@H](CCC(=O)O)C(=O)N[C@H](C(=O)N[C@H](C(=O)N[C@@H](CO)C(=O)NCCCC(=O)NCCOCCOCC(=O)NCCCC(=O)NCCCCC(N)C(=O)N1CCSC1)[C@@H](C)CC)[C@@H](C)CC (some centres unmarked) [Compound 5932]
- effect on body weight (in words) (NIH/Swiss female mice): decrease in body weight, measurable at day 2
- return of body weight to pre-treatment levels (in words) (NIH/Swiss female mice): body weight does not return to pre-treatment levels by day 5
- Stability in hKBBM [1]: 63%

SMILES: CC[C@H](C)[C@H](NC(=O)[C@H](Cc1ccccc1)NC(=O)[C@H](CC(C)C)NC(=O)[C@H](CCCNC(=N)N)NC(=O)[C@@H](NC(=O)[C@H](C)NC(=O)[C@H](CCC(=O)O)NC(=O)[C@H](CCC(=O)O)NC(=O)[C@H](CCC(=O)O)NC(=O)[C@H](CC(C)C)NC(=O)[C@H](CCC(N)=O)NC(=O)[C@H](CCCCN)NC(=O)[C@H](CO)NC(=O)[C@H](CC(C)C)NC(=O)[C@H](CC(=O)O)NC(=O)[C@H](CO)NC(=O)[C@@H](NC(=O)[C@H](Cc1ccccc1)NC(=O)[C@@H](NC(=O)CNC(=O)[C@H](CCC(=O)O)NC(=O)CNC(=O)[C@@H](N)Cc1c[nH]cn1)[C@@H](C)O)[C@@H](C)O)C(C)C)C(=O)N[C@@H](CCC(=O)O)C(=O)N[C@@H](Cc1c[nH]c2ccccc12)C(=O)N[C@@H](CC(C)C)C(=O)N[C@@H](CCCCN)C(=O)N[C@@H](CCC(N)=O)C(=O)NCC(=O)NCC(=O)N1CCC[C@H]1C(=O)N[C@@H](CO)C(=O)N[C@@H](CCCCN)C(=O)N[C@@H](CCC(=O)O)C(=O)N[C@H](C(=O)N[C@H](C(=O)N[C@@H](CO)C(=O)NCCCC(=O)NCCOCCOCC(=O)NCCCC(=O)NCCCCC(N)C(=O)N1CCC[C@H]1C#N)[C@@H](C)CC)[C@@H](C)CC (some centres unmarked) [Compound 5933]
- effect on body weight (in words) (NIH/Swiss female mice): decrease in body weight, measurable at day 2 which continues at least through day 5
- Stability in hKBBM [1]: 87%

SMILES: CC[C@H](C)[C@H](NC(=O)[C@H](Cc1ccccc1)NC(=O)[C@H](CC(C)C)NC(=O)[C@H](CCCNC(=N)N)NC(=O)[C@@H](NC(=O)[C@H](C)NC(=O)[C@H](CCC(=O)O)NC(=O)[C@H](CCC(=O)O)NC(=O)[C@H](CCC(=O)O)NC(=O)[C@H](CC(C)C)NC(=O)[C@H](CCC(N)=O)NC(=O)[C@H](CCCCN)NC(=O)[C@H](CO)NC(=O)[C@H](CC(C)C)NC(=O)[C@H](CC(=O)O)NC(=O)[C@H](CO)NC(=O)[C@@H](NC(=O)[C@H](Cc1ccccc1)NC(=O)[C@@H](NC(=O)CNC(=O)[C@H](CCC(=O)O)NC(=O)CNC(=O)[C@@H](N)Cc1c[nH]cn1)[C@@H](C)O)[C@@H](C)O)C(C)C)C(=O)N[C@@H](CCC(=O)O)C(=O)N[C@@H](Cc1c[nH]c2ccccc12)C(=O)N[C@@H](CC(C)C)C(=O)N[C@@H](CCCCN)C(=O)N[C@@H](CCC(N)=O)C(=O)NCC(=O)NCC(=O)N1CCC[C@H]1C(=O)N[C@@H](CO)C(=O)N[C@@H](CCCCN)C(=O)N[C@@H](CCC(=O)O)C(=O)N[C@H](C(=O)N[C@H](C(=O)N[C@@H](CO)C(=O)NCCOCCOCC(=O)NCCCC[C@H](N)C(=O)N1CC[S+]([O-])C1)[C@@H](C)CC)[C@@H](C)CC (some centres unmarked) [Compound 5934]
- Stability in hKBBM [1]: 97%

SMILES: CC[C@H](C)[C@H](NC(=O)[C@H](Cc1ccccc1)NC(=O)[C@H](CC(C)C)NC(=O)[C@H](CCCNC(=N)N)NC(=O)[C@@H](NC(=O)[C@H](C)NC(=O)[C@H](CCC(=O)O)NC(=O)[C@H](CCC(=O)O)NC(=O)[C@H](CCC(=O)O)NC(=O)[C@H](CC(C)C)NC(=O)[C@H](CCC(N)=O)NC(=O)[C@H](CCCCN)NC(=O)[C@H](CO)NC(=O)[C@H](CC(C)C)NC(=O)[C@H](CC(=O)O)NC(=O)[C@H](CO)NC(=O)[C@@H](NC(=O)[C@H](Cc1ccccc1)NC(=O)[C@@H](NC(=O)CNC(=O)[C@H](CCC(=O)O)NC(=O)CNC(=O)[C@@H](N)Cc1c[nH]cn1)[C@@H](C)O)[C@@H](C)O)C(C)C)C(=O)N[C@@H](CCC(=O)O)C(=O)N[C@@H](Cc1c[nH]c2ccccc12)C(=O)N[C@@H](CC(C)C)C(=O)N[C@@H](CCCCN)C(=O)N[C@@H](CCC(N)=O)C(=O)NCC(=O)NCC(=O)N1CCC[C@H]1C(=O)N[C@@H](CO)C(=O)N[C@@H](CCCCN)C(=O)N[C@@H](CCC(=O)O)C(=O)N[C@H](C(=O)N[C@H](C(=O)N[C@@H](CO)C(=O)NCCOCCOCC(=O)NCCCCC(N)C(=O)N1CCSC1)[C@@H](C)CC)[C@@H](C)CC (some centres unmarked) [Compound 5953]
- Stability in hKBBM [1]: 76%

SMILES: CC[C@H](C)[C@H](NC(=O)[C@H](Cc1ccccc1)NC(=O)[C@H](CC(C)C)NC(=O)[C@H](CCCNC(=N)N)NC(=O)[C@@H](NC(=O)[C@H](C)NC(=O)[C@H](CCC(=O)O)NC(=O)[C@H](CCC(=O)O)NC(=O)[C@H](CCC(=O)O)NC(=O)[C@H](CC(C)C)NC(=O)[C@H](CCC(N)=O)NC(=O)[C@H](CCCCN)NC(=O)[C@H](CO)NC(=O)[C@H](CC(C)C)NC(=O)[C@H](CC(=O)O)NC(=O)[C@H](CO)NC(=O)[C@@H](NC(=O)[C@H](Cc1ccccc1)NC(=O)[C@@H](NC(=O)CNC(=O)[C@H](CCC(=O)O)NC(=O)CNC(=O)[C@@H](N)Cc1c[nH]cn1)[C@@H](C)O)[C@@H](C)O)C(C)C)C(=O)N[C@@H](CCC(=O)O)C(=O)N[C@@H](Cc1c[nH]c2ccccc12)C(=O)N[C@@H](CC(C)C)C(=O)N[C@@H](CCCCN)C(=O)N[C@@H](CCC(N)=O)C(=O)NCC(=O)NCC(=O)N1CCC[C@H]1C(=O)N[C@@H](CO)C(=O)N[C@@H](CCCCN)C(=O)N[C@@H](CCC(=O)O)C(=O)N[C@H](C(=O)N[C@H](C(=O)N[C@@H](CO)C(=O)NCCOCCOCC(=O)NCCCC[C@H](N)C(=O)N1CCC[C@H]1C#N)[C@@H](C)CC)[C@@H](C)CC [Compound 5954, [^14Leu,^28Gln]Exendin-4-(1-32)-fGLP-1-(33-37)-miniPEG-(S)-2,6-diamino-1-(pyrrolidin-2-cyano-1-yl)hexan-1-amide]
- Stability in hKBBM [1]: 57%

SMILES: CC[C@H](C)[C@H](NC(=O)[C@H](Cc1ccccc1)NC(=O)[C@H](CC(C)C)NC(=O)[C@H](CCCNC(=N)N)NC(=O)[C@@H](NC(=O)[C@H](C)NC(=O)[C@H](CCC(=O)O)NC(=O)[C@H](CCC(=O)O)NC(=O)[C@H](CCC(=O)O)NC(=O)[C@H](CC(C)C)NC(=O)[C@H](CCC(N)=O)NC(=O)[C@H](CCCCN)NC(=O)[C@H](CO)NC(=O)[C@H](CC(C)C)NC(=O)[C@H](CC(=O)O)NC(=O)[C@H](CO)NC(=O)[C@@H](NC(=O)[C@H](Cc1ccccc1)NC(=O)[C@@H](NC(=O)CNC(=O)[C@H](CCC(=O)O)NC(=O)CNC(=O)[C@@H](N)Cc1c[nH]cn1)[C@@H](C)O)[C@@H](C)O)C(C)C)C(=O)N[C@@H](CCC(=O)O)C(=O)N[C@@H](Cc1c[nH]c2ccccc12)C(=O)N[C@@H](CC(C)C)C(=O)N[C@@H](CCCCN)C(=O)N[C@@H](CCC(N)=O)C(=O)NCC(=O)NCC(=O)N1CCC[C@H]1C(=O)N[C@@H](CO)C(=O)N[C@@H](CCCCN)C(=O)N[C@@H](CCC(=O)O)C(=O)N[C@H](C(=O)N[C@H](C(=O)N[C@@H](CO)C(=O)NCCCC(=O)NCCOCCOCC(=O)NCCCC(=O)NCCCCC(N)C(=O)N1CCS(=O)(=O)C1)[C@@H](C)CC)[C@@H](C)CC (some centres unmarked) [Compound 5955]
- effect on body weight (in words) (NIH/Swiss female mice): decrease in body weight, measurable at day 2
- return of body weight to pre-treatment levels (in words) (NIH/Swiss female mice): body weight returns to pre-treatment levels by day 5
- Stability in hKBBM [1]: 36%
